Data reported in patent US20240101708A1 (Genentech, published 2024).

Columns and labels:
RNF128 (GRAIL) = experiment: flow cytometry of live HT29 cells with stably integrated, doxycycline-induced gD-tagged ligase, stained with anti-gD antibody and APC; Parental HT29 APC-A+ 0.27
RNF13 = experiment: as above
RNF43 = experiment: as above
[1] = molecular target: T1, recombinant human ZNRF3 extracellular domain (human, UniProt Q9ULT6 56-219); experiment: SPR Biacore 8K; antibody captured on Protein A; ZNRF3 ECD analyte; 25 C
T1 construct: extracellular domain; also called huZNRF3; human ZNRF3 ECD
T1 sequence (looked up): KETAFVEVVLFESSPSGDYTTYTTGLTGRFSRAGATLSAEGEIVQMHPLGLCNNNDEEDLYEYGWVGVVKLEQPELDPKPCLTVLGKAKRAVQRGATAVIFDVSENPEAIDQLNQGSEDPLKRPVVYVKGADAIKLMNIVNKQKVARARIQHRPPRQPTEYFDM
Description: Antibodies were screened for binding to recombinant human RNF43 and ZNRF3 ECDs using a Biacore® 8 k instrument (GE Life Sciences). Briefly, antibodies diluted to 1 μg/ml in 1×HBSP buffer (Cytiva, BR100368) were captured on a Sensor Chip Protein A (GE Life Sciences) using a flow rate of 10 μl/minute and a contact time of 60 seconds. Binding of recombinant human RNF43 and ZNRF3 extracellular domain to the captured antibodies was analyzed at 25° C. using a single cycle kinetics method with a flow rate of 30 μl/minute, a contact time of 180 seconds and a dissociation time of 600 seconds. The concentration of recombinant human RNF43 and ZNRF3 extracellular domain in the single cycle kinetics were 0, 0.8, 4, 20, and 100 nM. Between cycles, the chip was regenerated using 10 mM Glycine HCl pH 1.5 injected for 30 seconds at 30 μl/minute. Data were evaluated using Biacore 8K Evaluation software (GE Life Sciences). Kinetic constants were obtained using a 1:1 binding model with the parameter RI set to zero. Cell surface ligase antibodies with sub-nanomolar affinities may provide advantages in certain instances, for example, in the degradation efficiency which is correlated with the durability of the ternary complex as shown in FIG. 5D.

[2] = molecular target: T2, recombinant human RNF43 extracellular domain (human) (UniProt Q68DV7); experiment: SPR Biacore 8K; antibody captured on Protein A; RNF43 ECD analyte; 25 C
T2 sequence (looked up): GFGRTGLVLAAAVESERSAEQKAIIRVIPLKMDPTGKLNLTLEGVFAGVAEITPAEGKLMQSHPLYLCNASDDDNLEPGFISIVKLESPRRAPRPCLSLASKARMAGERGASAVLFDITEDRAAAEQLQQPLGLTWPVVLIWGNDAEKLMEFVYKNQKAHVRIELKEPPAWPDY

Chain of RNF128 (GRAIL) (transmembrane E3 ubiquitin ligase with N-terminal gD tag, as listed by the source limits assumed): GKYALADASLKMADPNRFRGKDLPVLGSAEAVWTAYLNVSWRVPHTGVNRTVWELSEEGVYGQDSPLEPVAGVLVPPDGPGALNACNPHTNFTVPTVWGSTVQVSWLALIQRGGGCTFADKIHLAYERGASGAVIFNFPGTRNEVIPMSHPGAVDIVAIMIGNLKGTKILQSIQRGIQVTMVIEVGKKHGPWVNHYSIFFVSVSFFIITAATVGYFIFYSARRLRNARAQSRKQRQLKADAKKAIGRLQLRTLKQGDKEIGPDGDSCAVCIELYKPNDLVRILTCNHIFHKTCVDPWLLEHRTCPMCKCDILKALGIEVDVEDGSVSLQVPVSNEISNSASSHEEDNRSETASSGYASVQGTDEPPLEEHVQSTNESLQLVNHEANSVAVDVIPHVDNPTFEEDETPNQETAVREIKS
Chain of RNF43 (transmembrane E3 ubiquitin ligase with N-terminal gD tag, as listed by the source limits assumed): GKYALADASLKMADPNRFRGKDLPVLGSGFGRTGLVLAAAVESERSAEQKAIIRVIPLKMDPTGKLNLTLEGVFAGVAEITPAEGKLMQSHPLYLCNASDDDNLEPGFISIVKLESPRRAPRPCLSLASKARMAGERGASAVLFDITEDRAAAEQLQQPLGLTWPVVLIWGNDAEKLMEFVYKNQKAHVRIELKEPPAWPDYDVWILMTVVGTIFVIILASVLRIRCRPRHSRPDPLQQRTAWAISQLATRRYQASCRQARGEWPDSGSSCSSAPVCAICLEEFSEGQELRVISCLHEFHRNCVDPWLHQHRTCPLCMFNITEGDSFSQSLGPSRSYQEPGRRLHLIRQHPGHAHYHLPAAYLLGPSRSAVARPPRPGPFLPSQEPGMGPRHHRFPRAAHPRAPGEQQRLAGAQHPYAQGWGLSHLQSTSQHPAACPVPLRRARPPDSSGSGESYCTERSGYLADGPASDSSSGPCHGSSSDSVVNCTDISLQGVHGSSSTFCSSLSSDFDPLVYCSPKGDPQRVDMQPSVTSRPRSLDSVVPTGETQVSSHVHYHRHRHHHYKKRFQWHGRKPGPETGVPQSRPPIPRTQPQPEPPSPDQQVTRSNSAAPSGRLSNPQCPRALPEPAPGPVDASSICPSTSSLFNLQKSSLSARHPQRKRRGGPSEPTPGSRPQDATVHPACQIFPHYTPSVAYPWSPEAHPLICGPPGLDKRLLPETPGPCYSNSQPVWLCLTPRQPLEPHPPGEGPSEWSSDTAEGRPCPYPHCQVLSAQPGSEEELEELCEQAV
Chain of RNF13 (transmembrane E3 ubiquitin ligase with N-terminal gD tag, as listed by the source limits assumed): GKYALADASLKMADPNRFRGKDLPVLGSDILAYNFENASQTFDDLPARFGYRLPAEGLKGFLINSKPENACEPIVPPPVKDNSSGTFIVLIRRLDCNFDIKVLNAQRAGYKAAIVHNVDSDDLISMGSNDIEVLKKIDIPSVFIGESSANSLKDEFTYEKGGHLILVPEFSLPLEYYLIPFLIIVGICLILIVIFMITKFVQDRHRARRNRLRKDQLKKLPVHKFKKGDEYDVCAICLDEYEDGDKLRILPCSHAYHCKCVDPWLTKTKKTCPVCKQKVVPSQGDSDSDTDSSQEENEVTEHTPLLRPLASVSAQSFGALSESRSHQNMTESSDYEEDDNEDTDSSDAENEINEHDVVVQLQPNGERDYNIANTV

Molecule | Kd [1] [nM] | other results
anti-gD antibody | – | APC-A+ (share of cells in the positive gate; percentage by paragraph 258) (RNF128 (GRAIL)): 35; APC-A+ (share of cells in the positive gate; percentage by paragraph 258) (RNF13): 0.79; APC-A+ (share of cells in the positive gate; percentage by paragraph 258) (RNF43): 63
ZNRF3-322 (antibody, V domains shown, Rat clone; VH/VL only) VH: EVHLVESGGGLVQPGRSLTLSCVASGFTFNNWWMTWIRQAPGKGLEWVASISHTGGSTSYPDSVKGRFTISRDNAKSTLYLQMTSLRSDDTATYYCTRWGPILRGFDYWGQGVMVTVSS VL: DVVLTQTPPTLSATIGQSVSISCRSSQSLLHINGNTYVNWLVQRPGQPPQLLFYLVSRLESGVPNRFSGSGSGTDFTLKISGVEAEDLGVYYCVQSTHAPPTFGGGTKLELK | – | binding result [1]: no binding
RNF43-19 (antibody, V domains shown) VH: QQQLEESGGGLVKPGGTLTLTCKASGIDFSTYYYMCWVRQAPGKGLEWIACIYTGDGNTYYASWAKGRFTISKTSSTTVTLQMTSLTAADTATYFCARDLAGSSYYSGYYFKLWGPGTLVTVSS VL: DVVMTQTPASVSEPVGGTVTIKCQASQSIGSNLAWYQQKPGQPPKLLIYSVSNLASGVSSRFKGSRSGTEYTLTISDLECADAATYYSQSGYYGSTYAFGGGTEVVVK | – | Kd [2]: 34.2 nM
ZNRF3-223 (antibody, V domains shown, Rat clone; VH/VL only) VH: EVQLVESGGGLVQPGESLKLSCSASGFTFSNYGMHWIRQVPGKGLDWVAYITNSGGSLYAAAVKGRFTISRDNAKNTLYLELTSLKSEDTAIYHCARGYSYPGPYWGRGTLVTVSS VL: DIQVTQSPSSLLASLGERVTITCQTGQSINNYLNWYQQRPGQAPLLLIYFATSLQTGVPSRFSGQYSGRSFTLTITSLEPEDIANYFCLQHYSPPYTFGAGTKLELR | 0.0443 | –
ZNRF3-244 (antibody, V domains shown, Rat clone; VH/VL only) VH: EVQLVESGGGLVQPGKSLKLSCSASGFTFSSYGMHWIRQTPGKGLDWVAYISTNSGTVYADAVKGRFTISRDNAKNTLYLQLNSLQSEDTAIYYCARGYNYPGAYWGQGTLVTVSS VL: DIQVTQSPSSLLASLGERVTITCQTSQSISNNLNWYQQKPGQAPMLLIYYATSLQTGMPSRFSGQYSGRSFTLTITSLEPEDIANYFCLQHYNPPYTFGAGTKLELK | 6.85 | –
ZNRF3-329 (antibody, V domains shown, Rat clone; VH/VL only) VH: EVQLVESGGGLVQPGKSLKLSCSASGFTFSSHGMHWIRQAPGKGLDWVAYISNNSGTIYSAAVRGRFTISRDNSKNTLFLQLNSLKSEDTAIYYCARGYNYPGAYWGQGTLVTVSS VL: DIQVTQSPSSLLASLGERVTITCQTSQSIRNYLNWYQQKPGQVPILLIYYATSLQTDMPSRFSGQYSGRSFTLTITSLEPEDIANYFCLQHYSVPYTFGAGTKLELK | 0.283 | –
ZNRF3-231 (antibody, V domains shown, Rat clone; VH/VL only) VH: EVQLVESGGGLVQPGESLKLSCSASGFTFSNYGMHWIRQVPGKGLDWVAYISNSGGSLYADAVKGRFTISRDNAKNTLYLELNSLKSEDTAIYHCARGYSYPGPYWGQGTLVTVSS VL: DIQVTQSPSSLLASLGERVTITCQTGQSINNYLNWYQQRPGQAPLLLIYFATSLQTGVPSRFSGQYSGRSFTLTITSLEPEDIANYFCLQHYSPPYTFGAGTKLELR | 0.0783 | –
ZNRF3-270 (antibody, V domains shown, Rat clone; VH/VL only) VH: EVQLVESGGGLVQPGESLKLSCSASGFTFSNYGMHWIRQVPGKGLDWVAYITNSGGSLYAAAVKGRFTISRDNAKNTLYLELTSLKPEDTAIYHCARGYSYPGPYWGRGTLVTVSS VL: DIQVTQSPSSLLASLGERVTITCQTGQSINNYLNWYQQRPGQAPLLLIYFATSLQTGVPSRFSGQYSGRSFTLTITSLEPEDIANYFCLQHYSPPYTFGAGTKLELR | 0.0424 | –
ZNRF3-332 (antibody, V domains shown, Rabbit clone; VH/VL only) VH: QSLEESGGGLVQPEGSLTLTCTASGIDFSTRNYMCWVRQAPGKGLEWVGCIYTSSGGTYYASWVNGRFTISKTSSTTVTLRMTSLTAADTATYFCARGGYVGYGYATYFNLWGPGTLVAVSS VL: DVVMTQTPASVSEPVGGTVTIKCQASQSISSYLSWYQQKPGQPPKLLIYYVSNLESGVPSRFKGSGSGTEFTLTISDLECADAATYYCQNYYSSSSGWAFGGGTEVVVK | 1.6 | –
ZNRF3-237 (antibody, V domains shown, Rat clone; VH/VL only) VH: QIQLVQSGPELKKPGESVKISCKASGYTFTDYAMHWVKQVPGKGLKWMGWINTYTGKPTYADDFKGRFVFSLEASASTVNLQISNLKNEDTANVFCARGGLLSRGWFAYWGQGTLVTVSS VL: DIVMTQTPVSLSVSLGGQVSISCRSSQSFVHSDGNSYLSWYLQKPGQSPQLLIYEVSNRLSGVPDRFSGSGSGTDFTLKISRVEHDDLGVYYCGQASKIPLTFGSGTKLEIK | 5.3 | –
ZNRF3-331 (antibody, V domains shown, Rabbit clone; VH/VL only) VH: QSVEESGGRLVTPGTPLTLTCTVSGFSLSSYAMGWVRQAPGKGLEWIGIIYAGDTTYYASWAKGRFTISETSTTVDLKITSPTTEDTATYFCARKSDDDSDSYLLWGPGTLVTVSS VL: AYDMTQTPASVEVAVGGTVTIKCQASQSISSYLNWYQQKRGQPPKLLIYDASTLASGVPSRFSGSGSGTEFTLTISGVQCDDAATYYCQQGWSSTNIDNIFGGGTEVVVK | 0.2 | –
ZNRF3-255 (antibody, V domains shown, Rat clone; VH/VL only) VH: EVQLVESGGGLVQPGRSLKLSCAASGFTFSSFTMAWVRQAPKKGLEWVASISSGGGGTYYPDSVKGRFTISRDNAKSTLYLQMDSLRSEDTASYYCATGGFAYWGQGTLVIVSS VL: DIQMTQSPSSLPASLGDRVTITCRASQDIGSYLRWFQQKPGKSPRLMIYGATSLANGVPSRFSGSRSGSDYSLTINNLESEDMAIYYCLQHNEFPYTFGTGTKLELK | 0.26 | –
ZNRF3-222 (antibody, V domains shown, Rat clone; VH/VL only) VH: EVQLVESGGGLVQPGRSLKLSCAVSGFTFSNYGMAWVRQTPTKGLEWVATITYDGSTTYYRDSVKGRFTISRDNAKSALSLQMDSLRSEDTATYHCARQGLGYPFVYWGQGTLVTVSS VL: DVVMTQTPVSLPVSLGGQASISCRTSQSLVHSNGNTYLHWYLQKPGQSPQLLIYRVSNRFSGVPDRFSGSGSGTDFTLKISRIEPEDLGDYYCLQSTHFPYTFGAGTKLELK | – | binding result [1]: no binding
ZNRF3-296 (antibody, V domains shown, Rat clone; VH/VL only) VH: EVQLVESGGGLVQPGKSLRLSCSASGFTFSNYGLHWIRQAPGKGLDWLGYSSSNSGTVYGDAVKGRVTISRDNAKNTLYLQLNSLKSEDTAIYYCARGYSSSPFAYWGQGTLVTVSS VL: DIVLTQSPALAVSLGQRVTISCKASQNVDGFGIGYMHWYQQKPGQKPKLLIFAGSNLASGIPARFSGSGSGTDFTLTIDPVETDDIATYYCQQNKDFPLTFGSGSRLEIT | 0.0371 | –
